# Residue numbers refer to the chain shown, from its start. Numbers in names are those of the source.
# B1: h1701-009 (antibody, human IgG4 S228P, kappa, V domains shown)
# VH: QVQLVQSGAEVKKPGASVKVSCKASGYTFTDYYMNWVRQAPGQGLEWMGDIIPNNGGSKYNQKFKDRVTMTTDTSTSTAYMELRSLRSDDTAVYYCATWGYGSSYRWFDYWGQGTLVTVSS
# VL: DIQMTQSPSSLSASVGDRVTITCLASQPIGIWLAWYQQKPGKAPKLLIYAATSLADGVPSRFSGSGSGTDFTFTISSLQPEDIATYYCQQLYSSPWTFGGGTKVEIKR
# notes: Humanized IgG4 (S228P)/kappa
# B2: h1701-010 (antibody, human IgG4 S228P, kappa, V domains shown)
# VH: B1 VH
# VL: B1 VL with A43S
# notes: Humanized IgG4 (S228P)/kappa
# B3: h1701-016 (antibody, human IgG4 S228P, kappa, V domains shown)
# VH: B1 VH with M48I, G49A, V68A, M70L
# VL: B1 VL with A43S
# notes: Humanized IgG4 (S228P)/kappa
# B4: Ch1701 (antibody, human IgG4 S228P, kappa, V domains shown)
# VH: EVQLQQSGPELVKPGASVKISCKASGYTFTDYYMNWVKQSHGKSLEWIADIIPNNGGSKYNQKFKDKATLTVDKSSSTAYMELRSLTSEDSAVYYCATWGYGSSYRWFDYWGQGTLVSVSA
# VL: DIQMTQSPASQSASLGESVTITCLASQPIGIWLAWYQQKPGKSPQLLIYAATSLADGVPSRFSGSGSGTKFSFKISSLQAEDFVSYYCQQLYSSPWTFGGGTKLEIKR
# B5: Ch1799 (antibody, human IgG4 S228P, kappa, V domains shown)
# VH: EVKLVESEGGLVQPGSSMKLSCTASGFTFSDYYMAWVRQVPEKGLEWVANINYDGSSTYYLDSLKSRFIISRDNAKNILYLQMNSLKSDDTATYYCARDVGYYGGNYGFAYWGQGTLVTVSA
# VL: DIQMTQSPASLSASVGETVTITCRASDNIYSYLAWYQQKQGKSPQLLVYNAKTLAEGVPSRFSGSGSGTQFSLKINSLQPEDFGSYYCQQHYGSPLTFGAGTKLELKR
# B6: h1799-005 (antibody, human IgG4 S228P, kappa)
# heavy: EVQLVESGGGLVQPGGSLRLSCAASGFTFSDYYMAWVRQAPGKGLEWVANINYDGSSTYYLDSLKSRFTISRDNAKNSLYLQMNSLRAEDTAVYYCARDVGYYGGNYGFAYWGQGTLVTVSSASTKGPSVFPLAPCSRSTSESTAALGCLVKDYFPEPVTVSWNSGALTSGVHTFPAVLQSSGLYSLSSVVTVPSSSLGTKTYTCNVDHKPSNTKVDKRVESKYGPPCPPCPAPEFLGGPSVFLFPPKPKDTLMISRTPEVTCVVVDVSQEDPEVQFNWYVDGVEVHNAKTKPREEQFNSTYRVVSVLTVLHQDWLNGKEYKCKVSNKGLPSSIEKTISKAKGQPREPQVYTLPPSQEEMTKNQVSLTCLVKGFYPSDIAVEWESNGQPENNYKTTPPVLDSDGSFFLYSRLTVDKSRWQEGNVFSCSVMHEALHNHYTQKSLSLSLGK
# light: DIQMTQSPSSLSASVGDRVTITCRASDNIYSYLAWYQQKPGKAPKLLIYNAKTLAEGVPSRFSGSGSGTDFTLTISSLQPEDFATYYCQQHYGSPLTFGQGTKLEIKRTVAAPSVFIFPPSDEQLKSGTASVVCLLNNFYPREAKVQWKVDNALQSGNSQESVTEQDSKDSTYSLSSTLTLSKADYEKHKVYACEVTHQGLSSPVTKSFNRGEC
# notes: Humanized IgG4 (S228P)/kappa
# B7: h1799-010 (antibody, human IgG4 S228P, kappa)
# heavy: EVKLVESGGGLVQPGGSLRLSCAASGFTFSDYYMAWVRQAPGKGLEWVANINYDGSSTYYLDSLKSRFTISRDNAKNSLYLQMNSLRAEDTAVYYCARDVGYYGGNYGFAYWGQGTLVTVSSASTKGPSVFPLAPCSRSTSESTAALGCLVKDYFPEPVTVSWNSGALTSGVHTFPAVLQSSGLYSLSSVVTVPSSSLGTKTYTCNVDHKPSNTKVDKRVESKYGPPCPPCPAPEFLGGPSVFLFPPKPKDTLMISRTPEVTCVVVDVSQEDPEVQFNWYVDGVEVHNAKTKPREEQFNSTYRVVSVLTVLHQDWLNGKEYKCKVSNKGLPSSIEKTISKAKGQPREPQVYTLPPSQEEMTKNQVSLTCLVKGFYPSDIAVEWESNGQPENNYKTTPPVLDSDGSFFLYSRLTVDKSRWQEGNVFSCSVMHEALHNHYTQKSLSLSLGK
# light: B6 light
# notes: Humanized IgG4 (S228P)/kappa
# B8: h1799-006 (antibody, human IgG4 S228P, kappa)
# heavy: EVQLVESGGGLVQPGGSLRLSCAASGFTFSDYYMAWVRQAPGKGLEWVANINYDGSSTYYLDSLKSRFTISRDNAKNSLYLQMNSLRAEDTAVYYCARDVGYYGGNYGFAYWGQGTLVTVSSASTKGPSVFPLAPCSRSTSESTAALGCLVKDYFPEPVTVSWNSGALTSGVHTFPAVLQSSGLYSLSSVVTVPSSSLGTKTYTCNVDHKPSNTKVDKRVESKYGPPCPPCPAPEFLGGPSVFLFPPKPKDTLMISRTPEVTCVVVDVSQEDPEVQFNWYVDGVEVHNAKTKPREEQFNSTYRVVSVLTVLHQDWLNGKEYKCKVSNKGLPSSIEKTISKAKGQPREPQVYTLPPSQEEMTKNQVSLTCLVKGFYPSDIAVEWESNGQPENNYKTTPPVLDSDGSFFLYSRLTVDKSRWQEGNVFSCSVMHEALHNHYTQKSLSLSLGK
# light: B6 light with I48V
# notes: Humanized IgG4 (S228P)/kappa
# B9: h1701-009NAG (antibody, human IgG4 S228P, kappa, V domains shown)
# VH: B1 VH with N55A
# VL: B1 VL
# notes: HCDR2 point-mutation variant of h1701-009 (NNG to NAG); IgG4 (S228P)/kappa
# B10: h1701-009NEA (antibody, human IgG4 S228P, kappa, V domains shown)
# VH: B1 VH with N55E, G56A
# VL: B1 VL
# notes: HCDR2 point-mutation variant of h1701-009 (NNG to NEA); IgG4 (S228P)/kappa
# B11: h1701-009NEG (antibody, human IgG4 S228P, kappa, V domains shown)
# VH: B1 VH with N55E
# VL: B1 VL
# notes: HCDR2 point-mutation variant of h1701-009 (NNG to NEG); IgG4 (S228P)/kappa
# B12: h1701-009NHA (antibody, human IgG4 S228P, kappa, V domains shown)
# VH: B1 VH with N55H, G56A
# VL: B1 VL
# notes: HCDR2 point-mutation variant of h1701-009 (NNG to NHA); IgG4 (S228P)/kappa
# B13: h1701-009NHG (antibody, human IgG4 S228P, kappa, V domains shown)
# VH: B1 VH with N55H
# VL: B1 VL
# notes: HCDR2 point-mutation variant of h1701-009 (NNG to NHG); IgG4 (S228P)/kappa
# B14: h1701-009NKG (antibody, human IgG4 S228P, kappa, V domains shown)
# VH: B1 VH with N55K
# VL: B1 VL
# notes: HCDR2 point-mutation variant of h1701-009 (NNG to NKG); IgG4 (S228P)/kappa
# B15: h1701-009NLG (antibody, human IgG4 S228P, kappa, V domains shown)
# VH: B1 VH with N55L
# VL: B1 VL
# notes: HCDR2 point-mutation variant of h1701-009 (NNG to NLG); IgG4 (S228P)/kappa
# B16: h1701-009NMA (antibody, human IgG4 S228P, kappa, V domains shown)
# VH: B1 VH with N55M, G56A
# VL: B1 VL
# notes: HCDR2 point-mutation variant of h1701-009 (NNG to NMA); IgG4 (S228P)/kappa
# B17: h1701-009NMG (antibody, human IgG4 S228P, kappa, V domains shown)
# VH: B1 VH with N55M
# VL: B1 VL
# notes: HCDR2 point-mutation variant of h1701-009 (NNG to NMG); IgG4 (S228P)/kappa
# B18: h1701-009NNA (antibody, human IgG4 S228P, kappa, V domains shown)
# VH: B1 VH with G56A
# VL: B1 VL
# notes: HCDR2 point-mutation variant of h1701-009 (NNG to NNA); IgG4 (S228P)/kappa
# B19: h1701-009NVG (antibody, human IgG4 S228P, kappa, V domains shown)
# VH: B1 VH with N55V
# VL: B1 VL
# notes: HCDR2 point-mutation variant of h1701-009 (NNG to NVG); IgG4 (S228P)/kappa
# B20: ABTim-3 (antibody, V domains shown)
# VH: QVQLQQPGAELVKPGASVKMSCKASGYTFTSYNMHWIKQTPGQGLEWIGDIYPGNGDTSYNQKFKGKATLTADKSSSTVYMQLSSLTSEDSAVYYCARVGGAFPMDYWGQGTSVTVSS
# VL: DIVLTQSPASLAVSLGQRATISCRASESVEYYGTSLMQWYQQKPGQPPKLLIYAASNVESGVPARFSGSGSGTDFSLNIHPVEEDDIAIYFCQQSRKDPSTFGGGTKLEIK
# Target: T1, human TIM-3 full length, overexpressed on CHO-S cells (human, UniProt Q8TDQ0 22-301)
# T1 construct: cells fixed with 4% PFA on plates; also called HAVCR2; Tim-3-overexpressing CHO-S cells
# Assay: cell-based ELISA on fixed CHO-S cells overexpressing human TIM-3;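 note: antibody binding at serial dilutions to PFA-fixed cells for 1 h at 37 °C, read as TMB colour signal after acid stop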
# Method: (§1) The binding activity of anti-TIM-3 antibody to CHO-S cells overexpressing human TIM-3 is detected via a binding assay. […] TIM-3-overexpressing cells were immobilized on a 96-well plate. After the addition of the antibody, signal strength was used to determine the binding activity of the antibody to Tim-3-overexpressing CHO-S cells.
# (§2) The cells were inoculated on a 96-well plate with 4E5/ml density, 100 μg/well, and cultured overnight. Supernatant was discarded and the plate was washed three times with PBS. 100 μl/well of 4% PFA was added into each well, and the plate was fixed at room temperature for 30 minutes. The plate was washed three times with PBS. The liquid was discarded, and 200 μl of blocking solution (5% skim milk (Guangming skim milk powder) diluted with PBS) was added to each well. The plate was incubated at 37° C. for 2.5 h. Then the blocking solution was discarded, and the plate was washed 5 times with PBST buffer (pH 7.4 PBS containing 0.05% Tween-20). 50 μl/well of various concentrations of antibodies to be tested (antibody via hybridoma purification or humanized antibody), diluted with sample buffer, were added into each well, and incubated at 37° C. for 1 h. […] The plate was washed 6 times with PBST, and 100 μl/well TMB chromogenic substrates (KPL, Cat, No., 52-00-03) was added to each well. The plate was incubated at room temperature for 5-15 min. Reaction was stopped by the addition of 50 μl of 1 M H₂SO₄ to each well.
row,Binder,EC50
1,B1,0.187 nM
2,B2,0.069 nM
3,B3,0.058 nM
4,B4,0.166 nM
5,B5,0.08 nM
6,B6,0.063 nM
7,B7,0.077 nM
8,B8,0.095 nM

# Target: T1, human TIM-3 full length, overexpressed …
# Assay: cell-based ELISA on CHO-S cells overexpressing human TIM-3
# Method: as §1, §2
row,Binder,EC50
1,B1,0.503 nM
2,B9,0.512 nM
3,B10,0.667 nM
4,B11,0.673 nM
5,B12,0.53 nM
6,B13,0.317 nM
7,B14,0.438 nM
8,B15,0.637 nM
9,B16,0.629 nM
10,B17,0.603 nM
11,B18,0.515 nM
12,B19,0.717 nM

# Target: T1, human TIM-3 full length, overexpressed …
# Assay: cell-based ELISA on fixed CHO-S cells overexpressing human TIM-3, HRP-labeled secondary antibody, OD450
row,Binder,EC50 (read off the curve)
1,B20,~0.2 nM

# Target: T2, Extracellular domain of TIM-3 with Flag and His tag (human)
# T2 construct: also called TIM-3-Flag-His
# Assay: Biacore SPR; antibody as stationary phase, 'TIM-3-His' as mobile phase
row,Binder,Kd
1,B1,0.599 nM
2,B9,0.579 nM
3,B10,0.653 nM
4,B11,0.64 nM
5,B12,0.597 nM
6,B13,0.64 nM
7,B14,0.472 nM
8,B15,0.64 nM
9,B16,0.653 nM
10,B17,0.675 nM
11,B18,0.569 nM
12,B19,0.581 nM

# Target: T2, Extracellular domain of TIM-3 with Flag …
# Assay: Biacore SPR; antibody captured by anti-human capture antibody on CM5, TIM-3-Flag-His in mobile phase
# From the text: The reaction signal was detected in real-time using Biacore instrument to obtain the association and dissociation curves. […] In the experiment, after each cycle of dissociation was finished, the biosensor chip was washed with the regenerative solution in the human capture antibody Kit.
row,Binder,Kd
1,B1,1.34 nM
2,B2,2.25 nM
3,B3,1.6 nM
4,B4,1.39 nM
5,B5,1.76 nM
6,B6,1.78 nM
7,B7,2.48 nM
8,B8,1.89 nM
